According to patent US20220088146A1, “Melanocortin Receptor-Specific Peptide Formulations and Methods for Gastrointestinal Tract-Specific Delivery” (Palatin Technologies, Inc., priority 2018, published 2022):
Bridge positions count the residues as written; N and C are the ends. Square brackets hold non-standard residues; d marks the D form. dPhe(3-Cl) = N[C@H](Cc1cccc(Cl)c1)C(=O)O; dPhe(4-Cl) = N[C@H](Cc1ccc(Cl)cc1)C(=O)O; dPhe(4-Me) = Cc1ccc(C[C@@H](N)C(=O)O)cc1; dPhe(2-Cl) = N[C@H](Cc1ccccc1Cl)C(=O)O; dPhe(4-F) = N[C@H](Cc1ccc(F)cc1)C(=O)O; dPhe(2-F) = N[C@H](Cc1ccccc1F)C(=O)O; Nle = CCCC[C@H](N)C(=O)O; Orn = NCCC[C@H](N)C(=O)O; Dab = NCC[C@H](N)C(=O)O

How the values were obtained:
melanocortin-3 receptor = melanocortin-3 receptor (UniProt P41968); assay: cell-based or functional assay
melanocortin-5 receptor = melanocortin-5 receptor (UniProt P33032); assay: cell-based or functional assay
[1] = target: human melanocortin-4 receptor (human) (UniProt P32245); assay: cell-based or functional assay
[2] = target: human melanocortin-1 receptor (human) (UniProt Q01726); assay: cell-based or functional assay
melanocortin-2 receptor = melanocortin-2 receptor (UniProt Q01718); assay: cell-based or functional assay
[3] = target: human melanocortin-4 receptor (human) (UniProt P32245); assay: [I125]-NDP-α-MSH competition, hMC4r HEK-293 membranes
[4] = target: human melanocortin-1 receptor (human) (UniProt Q01726); assay: [I125]-NDP-α-MSH competition, hMC1r HEK-293 membranes

human melanocortin-4 receptor (human), sequence (P32245 whole entry): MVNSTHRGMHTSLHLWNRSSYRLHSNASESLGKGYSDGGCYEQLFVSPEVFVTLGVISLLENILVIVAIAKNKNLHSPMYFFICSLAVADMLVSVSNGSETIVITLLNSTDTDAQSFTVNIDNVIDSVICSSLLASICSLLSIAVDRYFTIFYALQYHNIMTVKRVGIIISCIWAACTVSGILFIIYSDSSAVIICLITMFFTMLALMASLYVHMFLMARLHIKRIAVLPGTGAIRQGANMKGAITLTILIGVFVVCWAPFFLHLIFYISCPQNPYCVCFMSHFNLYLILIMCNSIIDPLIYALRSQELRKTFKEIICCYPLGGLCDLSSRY
human melanocortin-1 receptor (human), sequence (Q01726 whole entry): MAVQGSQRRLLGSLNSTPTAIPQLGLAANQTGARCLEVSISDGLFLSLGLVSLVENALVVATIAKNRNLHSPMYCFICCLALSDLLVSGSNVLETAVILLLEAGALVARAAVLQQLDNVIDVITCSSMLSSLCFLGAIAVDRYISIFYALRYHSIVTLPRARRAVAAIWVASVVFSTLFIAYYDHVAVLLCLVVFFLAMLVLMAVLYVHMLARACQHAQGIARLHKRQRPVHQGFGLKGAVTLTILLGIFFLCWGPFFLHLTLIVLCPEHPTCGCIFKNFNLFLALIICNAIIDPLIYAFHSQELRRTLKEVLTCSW
melanocortin-3 receptor, sequence (P41968 whole entry): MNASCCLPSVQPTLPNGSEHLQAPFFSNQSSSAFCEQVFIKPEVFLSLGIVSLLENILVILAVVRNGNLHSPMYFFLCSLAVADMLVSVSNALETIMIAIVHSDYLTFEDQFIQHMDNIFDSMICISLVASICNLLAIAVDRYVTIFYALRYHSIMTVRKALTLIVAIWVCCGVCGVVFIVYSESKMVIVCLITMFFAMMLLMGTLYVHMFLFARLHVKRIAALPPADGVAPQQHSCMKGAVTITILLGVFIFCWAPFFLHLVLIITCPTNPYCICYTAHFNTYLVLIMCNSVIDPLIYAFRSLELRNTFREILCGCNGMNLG
melanocortin-2 receptor, sequence (Q01718 whole entry): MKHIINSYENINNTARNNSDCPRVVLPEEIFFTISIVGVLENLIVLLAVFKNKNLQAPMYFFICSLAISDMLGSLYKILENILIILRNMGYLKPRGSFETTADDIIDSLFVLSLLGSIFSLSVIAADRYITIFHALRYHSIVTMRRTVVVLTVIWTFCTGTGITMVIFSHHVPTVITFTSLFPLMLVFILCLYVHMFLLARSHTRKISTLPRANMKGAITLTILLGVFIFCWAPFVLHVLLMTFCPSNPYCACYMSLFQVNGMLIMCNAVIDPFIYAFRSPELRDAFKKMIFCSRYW
melanocortin-5 receptor, sequence (P33032 whole entry): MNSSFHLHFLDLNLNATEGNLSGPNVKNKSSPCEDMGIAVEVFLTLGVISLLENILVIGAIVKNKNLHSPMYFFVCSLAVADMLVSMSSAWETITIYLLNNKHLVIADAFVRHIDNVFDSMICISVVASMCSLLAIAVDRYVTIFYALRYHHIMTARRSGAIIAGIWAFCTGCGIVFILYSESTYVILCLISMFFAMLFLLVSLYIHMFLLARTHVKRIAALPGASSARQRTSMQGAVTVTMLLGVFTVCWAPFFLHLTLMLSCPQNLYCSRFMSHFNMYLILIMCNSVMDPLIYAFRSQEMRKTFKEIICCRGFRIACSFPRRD

ACTH (adrenocorticotropic hormone) (from UniProt P01189 138-176) (ligand)
Functional - CEREP (EC50; nM) (melanocortin-3 receptor): 390 nM
Functional - CEREP (EC50; nM) (melanocortin-5 receptor): 4100 nM
Functional - CEREP (EC50; nM) [1]: 350 nM
Functional - CEREP (EC50; nM) [2]: 980 nM
Functional - CEREP (EC50; nM) (melanocortin-2 receptor): 4.8 nM

Ac-D-Phe-cyclo(Glu-His-D-Phe-Arg-Dab)-Trp-NH2 (peptide)
MC-1 Emax (average; cAMP HBL) [2]: 75%
Ki [3]: 535 nM

Ac-Nle-cyclo(Dab-His-D-Phe-Arg-Dab)-Trp-NH2 (peptide)
Ki [4]: 0.015 nM
MC-1 EC50 (average; cAMP HBL) [2]: 0.009 nM
MC-1 Emax (average; cAMP HBL) [2]: 92%
Ki [3]: 380 nM

Ac-Nle-cyclo(Dab-His-D-Phe-Arg-Dap)-Trp-NH2 (peptide)
Ki [4]: 0.025 nM
MC-1 EC50 (average; cAMP HBL) [2]: 0.006 nM
MC-1 Emax (average; cAMP HBL) [2]: 78%
Ki [3]: 325 nM

Ac-Nle-cyclo(Dap-His-D-Phe-Arg-Dab)-Trp-NH2 (peptide)
Ki [4]: 0.065 nM
MC-1 EC50 (average; cAMP HBL) [2]: 0.016 nM
MC-1 Emax (average; cAMP HBL) [2]: 85%
Ki [3]: 860 nM

Ac-Nle-cyclo(Dap-His-D-Phe-Arg-Dap)-Trp-NH2 (peptide)
Ki [4]: 0.03 nM
MC-1 EC50 (average; cAMP HBL) [2]: 0.007 nM
MC-1 Emax (average; cAMP HBL) [2]: 70%
Ki [3]: 680 nM

Ac-Nle-cyclo(Glu-Ala-D-Phe-Arg-Dab)-Trp-NH2 (peptide)
MC-1 Emax (average; cAMP HBL) [2]: 86%
Ki [3]: 455 nM

Ac-Nle-cyclo(Glu-Arg-D-Phe-Arg-Dab)-Trp-NH2 (peptide)
MC-1 Emax (average; cAMP HBL) [2]: 100%
Ki [3]: 20 nM

Ac-Nle-cyclo(Glu-Cit-D-Phe-Arg-Dab)-Trp-NH2 (peptide)
Ki [4]: 0.45 nM
MC-1 EC50 (average; cAMP HBL) [2]: 0.065 nM
MC-1 Emax (average; cAMP HBL) [2]: 97%
Ki [3]: 98 nM

Ac-Nle-cyclo(Glu-Dab-D-Phe-Arg-Dab)-Trp-NH2 (peptide)
Ki [4]: 0.05 nM
MC-1 EC50 (average; cAMP HBL) [2]: 0.008 nM
MC-1 Emax (average; cAMP HBL) [2]: 108%
Ki [3]: 98 nM

Ac-Nle-cyclo(Glu-His-D-Phe-Arg-Dab)-D-Nal 1-NH2 (peptide)
Ki [4]: 0.1 nM
MC-1 EC50 (average; cAMP HBL) [2]: 0.008 nM
MC-1 Emax (average; cAMP HBL) [2]: 73%
Ki [3]: 2 nM

Ac-Nle-cyclo(Glu-His-D-Phe-Arg-Dab)-D-Nal 2-NH2 (peptide)
Ki [4]: 0.02 nM
MC-1 EC50 (average; cAMP HBL) [2]: 0.005 nM
MC-1 Emax (average; cAMP HBL) [2]: 69%
Ki [3]: 0.095 nM

Ac-Nle-cyclo(Glu-His-D-Phe-Arg-Dab)-D-Trp-NH2 (peptide)
Ki [4]: 0.55 nM
MC-1 EC50 (average; cAMP HBL) [2]: 0.025 nM
MC-1 Emax (average; cAMP HBL) [2]: 93%
Ki [3]: 33 nM

Ac-Nle-cyclo(Glu-His-D-Phe-Arg-Dab)-Nal 1-NH2 (peptide)
Ki [4]: 0.005 nM
MC-1 EC50 (average; cAMP HBL) [2]: 0.002 nM
MC-1 Emax (average; cAMP HBL) [2]: 72%
Ki [3]: 0.75 nM

Ac-Nle-cyclo(Glu-His-D-Phe-Arg-Dab)-Nal 2-NH2 (peptide)
Ki [4]: 0.01 nM
MC-1 EC50 (average; cAM PHBL) [2]: 0.004 nM
MC-1 Emax (average; cAMP HBL) [2]: 83%
Ki [3]: 3 nM

Ac-Nle-cyclo(Glu-His-D-Phe-Arg-Dab)-Trp-NH2 (peptide)
MC-1 Emax (average; cAMP HBL) [2]: 95%
Ki [3]: 110 nM

Ac-Nle-cyclo(Glu-His-D-Phe-Arg-Dab)-Trp-OH (peptide)
Ki [4]: 2 nM
MC-1 Emax (average; cAMP HBL) [2]: 79%
Ki [3]: 10000 nM

Ac-Nle-cyclo(Glu-His-D-Phe-Arg-Dap)-Trp-NH2 (peptide)
Functional - CEREP (EC50; nM) [1]: 510 nM
MC-1 Emax (average; cAMP HBL) [2]: 91%
Ki [3]: 510 nM

Ac-Nle-cyclo(Glu-His-D-Phe-Arg-Dap)-Trp-OH (peptide)
Ki [4]: 1 nM
MC-1 EC50 (average; cAMP HBL) [2]: 0.107 nM
MC-1 Emax (average; cAMP HBL) [2]: 81%
Ki [3]: 4700 nM

Ac-Nle-cyclo(Glu-His-D-Phe-Arg-Orn)-Trp-NH2 (peptide)
MC-1 Emax (average; cAMP HBL) [2]: 91%
Ki [3]: 295 nM

Ac-Nle-cyclo(Glu-Lys-D-Phe-Arg-Dab)-Trp-NH2 (peptide)
MC-1 Emax (average; cAMP HBL) [2]: 108%
Ki [3]: 95 nM

Ac-Nle-cyclo(Glu-Orn-D-Phe(3,4-F)-Arg-Dab)-NH2 (peptide)
Ki [4]: 40 nM
MC-1 EC50 (average; cAMP HBL) [2]: 1 nM
MC-1 Emax (average; cAMP HBL) [2]: 97%
Ki [3]: 10000 nM

Ac-Nle-cyclo(Glu-Orn-D-Phe(4-OMe)-Arg-Dab)-NH2 (peptide)
Ki [4]: 2 nM
MC-1 EC50 (average; cAMP HBL) [2]: 0.12 nM
MC-1 Emax (average; cAMP HBL) [2]: 99%
Ki [3]: 10000 nM

Ac-Nle-cyclo(Glu-Orn-D-Phe-Arg-Dab)-Trp-NH2 (peptide)
Ki [4]: 0.015 nM
MC-1 EC50 (average; cAMP HBL) [2]: 0.002 nM
MC-1 Emax (average; cAMP HBL) [2]: 109%
Ki [3]: 45 nM

Ac-Nle-cyclo(Glu-Pro-D-Phe-Arg-Dab)-NH2 (peptide)
Ki [4]: 2250 nM
Ki [3]: 10000 nM

Ac-[Nle]EH[dF]A[Dab]-NH2 (lactam 2-6)
Ki [4]: 645 nM
MC-1 EC50 (average; cAMP HBL) [2]: 44 nM
MC-1 EC50 (average; cAMPHBL) [2]: 44 nM
MC-1 Emax (average; cAMP HBL) [2]: 73%
Ki [3]: 10000 nM

Ac-[Nle]EH[dF]R[Dab]-NH2 (lactam 2-6)
Ki [4]: 7 nM
MC-1 EC50 (average; cAM PHBL) [2]: 0.32 nM
MC-1 EC50 (average; cAMP HBL) [2]: 0.32 nM
MC-1 Emax (average; cAMP HBL) [2]: 85%
Ki [3]: 10000 nM

Ac-[Nle]EH[dF][Dab]-NH2 (lactam 2-5)
Ki [4]: 10000 nM
MC-1 Emax (average; cAMP HBL) [2]: 51%
Ki [3]: 10000 nM

Ac-[Nle]E[Orn][dF]R[Dab]-NH2 (lactam 2-6)
Ki [4]: 4 nM
MC-1 EC50 (average; cAMP HBL) [2]: 0.5 nM
MC-1 Emax (average; cAMP HBL) [2]: 102%
Ki [3]: 3620 nM

Ac-[Nle]E[Orn][dPhe(2-Cl)]R[Dab]-NH2 (lactam 2-6)
Ki [4]: 30 nM
MC-1 EC50 (average; cAMP HBL) [2]: 1 nM
MC-1 Emax (average; cAMP HBL) [2]: 88%
Ki [3]: 10000 nM

Ac-[Nle]E[Orn][dPhe(2-F)]R[Dab]-NH2 (lactam 2-6)
Ki [4]: 18 nM
MC-1 EC50 (average; cAMP HBL) [2]: 0.8 nM
MC-1 Emax (average; cAMP HBL) [2]: 95%
Ki [3]: 10000 nM

Ac-[Nle]E[Orn][dPhe(3-Cl)]R[Dab]-NH2 (lactam 2-6)
Ki [4]: 35 nM
MC-1 EC50 (average; cAMP HBL) [2]: 2 nM
MC-1 Emax (average; cAMP HBL) [2]: 86%
Ki [3]: 10000 nM

Ac-[Nle]E[Orn][dPhe(4-Cl)]R[Dab]-NH2 (lactam 2-6)
Ki [4]: 2 nM
MC-1 EC50 (average; cAMP HBL) [2]: 0.1 nM
MC-1 Emax (average; cAMP HBL) [2]: 100%
Ki [3]: 1240 nM

Ac-[Nle]E[Orn][dPhe(4-F)]R[Dab]-NH2 (lactam 2-6)
Ki [4]: 20 nM
MC-1 EC50 (average; cAMP HBL) [2]: 1 nM
MC-1 Emax (average; cAMP HBL) [2]: 102%
Ki [3]: 10000 nM

Ac-[Nle]E[Orn][dPhe(4-Me)]R[Dab]-NH2 (lactam 2-6)
Ki [4]: 3 nM
MC-1 EC50 (average; cAMP HBL) [2]: 0.076 nM
MC-1 Emax (average; cAMP HBL) [2]: 96%
Ki [3]: 10000 nM
